Assay [1] addresses T1, CD163 transfected Flp-In CHO cells (Homo sapiens, UniProt Q86VB7).
T1 construct: Stably transfected Chinese hamster ovary (CHO) cells expressing the full-length human CD163; expressed in transfected cells
Put plainly: Cellular binding and uptake (endocytosis) of 125I-labeled anti-CD163. Type of assay: cell-based. The method, then:
Monocytes were isolated from PBMC by negative selection using magnetic beads from Dynal (Dynabeads® MyPure™ Monocyte Kit 2; Invitrogen A/S, Taastrup, Denmark) according to instructions provided by the manufacturer. Monocyte preparations were more than 95% (CD14^+) pure determined by flow cytometry. The isolated cells were washed twice with phosphate-buffered saline. Monocyte-derived macrophages (MDMs) were prepared by cell culture of monocytes (approximately 1×10^7 cells) for 4 days in 5% CO2 and 37° C. in RPMI 1640 media (RPMI 1640+25 mM HEPES+I-glutamine) (Invitrogen Corporation, Carlsbad, Calif., USA) with 20% FCS containing 100 ng/ml of M-CSF. MDMs were then detached from the flask by incubation with cell dissociation buffer (Invitrogen A/S, Taastrup, Denmark) for 30 minutes at 4 °C, then flushed, and scraped. The cells were then cultured for 24 hours in RPMI 1640 media (RPMI 1640+25 mM HEPES+I-glutamine) (Invitrogen Corporation, Carlsbad, Calif., USA) supplemented with 20% FCS containing 100 ng/ml of M-CSF at 37° C. in 95% air and 5% CO2 in Lab-Tek™ Chamber Slides (Thermo Fisher Scientific, Roskilde, Denmark). 200 nM dexamethasone (Merck KGaA, Darmstadt, Germany) was added during culture to increase CD163 expression. Stably transfected Chinese hamster ovary (CHO) cells expressing the full-length human CD163, as described above, were cultured in serum-free CHO medium (HyQ-CCM, HyClone, Logan, Utah) containing 300 μg/ml Hygromycin B, as previously described (2).
Endocytosis of ^125I-labeled anti-CD163 was investigated in CD163 transfected Flp-In Chinese hamster ovary (CHO) cells and mock-transfected Flp-In as described (Madsen, M., Moller, H. J., Nielsen, M. J., Jacobsen, C., Graversen, J. H., van den Berg, T. and Moestrup, S. K. (2004) Molecular characterization of the haptoglobin.hemoglobin receptor CD163. Ligand binding properties of the scavenger receptor cysteine-rich domain region. J. Biol. Chem., 279, 51561-51567.)

Assay [2] concerns the target T2, mouse CD163 1-5 LKIHDK-->VKVQEE, Y60R mutant (Mus musculus, UniProt Q2VLH6, D69E/H68Q/I67V/K70E/L65V/Y111R).
T2 construct: A mutant (LKIHDK-->VKVQEE, Y60R) in domain 1 of mouse CD163 1-5; host or cells: Lenti-X 293T, transient; captured from supernatant on Ni-NTA
T2 sequence (Q2VLH6 39-577 L65V/I67V/H68Q/D69E/K70E/Y111R): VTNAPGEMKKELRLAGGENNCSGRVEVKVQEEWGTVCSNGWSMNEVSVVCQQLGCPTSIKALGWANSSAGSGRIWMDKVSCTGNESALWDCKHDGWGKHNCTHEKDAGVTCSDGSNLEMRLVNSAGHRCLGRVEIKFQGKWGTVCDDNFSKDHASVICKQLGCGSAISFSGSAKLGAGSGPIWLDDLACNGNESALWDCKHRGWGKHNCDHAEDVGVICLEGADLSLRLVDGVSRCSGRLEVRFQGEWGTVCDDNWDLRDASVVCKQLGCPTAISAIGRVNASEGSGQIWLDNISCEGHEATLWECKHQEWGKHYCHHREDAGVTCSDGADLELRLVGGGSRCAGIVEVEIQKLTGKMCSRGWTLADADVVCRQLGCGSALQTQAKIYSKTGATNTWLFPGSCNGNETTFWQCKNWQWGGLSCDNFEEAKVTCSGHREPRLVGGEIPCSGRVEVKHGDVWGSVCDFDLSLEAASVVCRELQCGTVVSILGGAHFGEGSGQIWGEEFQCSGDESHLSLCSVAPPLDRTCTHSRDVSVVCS
Put plainly: Western blotting of mouse CD163 and knock in mutant. The assay is classed as binding. On the procedure: CD163 domain 1-5 was used for expression of mouse CD163 domain 1-5/V5/His. A mutant (LKIHDK-->VKVQEE, Y60R) in domain 1 of mouse CD163 1-5 was ordered as midiprep at GenScript (Piscataway, N.J., USA). Sequences DNA and protein of mutants are show below (mutant only domain 1).
The mouse CD163 1-5 and the mouse CD163 domain 1 mutant were expressed transient in Lenti-X 293T cells as follows: 1.5 μg of the DNA was diluted in OptiCHOPro SFM (8 mM L-glutamine) to a total volume of 50 μl The DNA was gently mixed with 50 μl of OptiCHOPro SFM containing 1.5 μl Freestyle MAX transfection reagent (Invitrogen, Taastrup, Denmark). After 10 min of incubation at room temperature the complexes were added to 1×10^6 cells in 1 ml. Three days later, the cell supernatants were harvested by centrifugation.
Tris pH 8 buffer, and cell culture supernatants were added 60 μl of Ni-NTA His-bind resin slurry. After 1 hour shaking at 4° C. the supernatants were aspired and each of the purifications were eluted with 90 μl 50 mM Tris pH 8, 25 mM EDTA buffer.
90 μl of each of the eluates were added 30 μl of 4×LDS sample buffer. 20 μl samples of each supernatant and 8 μl SeeBlue plus2 prestained marker were loaded on NuPage 4-12% Bis-Tris-Gels (Invitrogen, Taastrup, Denmark) and the SDS-PAGEs were run with MOPS running buffer according to instructions of the manufacturer (200 V constant for 50 min). […]
On the technique in general: Immunoblotting shows a protein as a band on a membrane.

In assay [3] the target is CD163 (Homo sapiens, UniProt Q86VB7). Put plainly: Competition of binding to Mac2-158 epitope (SPR on Mac2-158 saturated CD163 chip). The note with it: 2 mM free calcium buffer, mAb 5 μg/ml. The method, then: To evaluate if there is competition in the binding of a range of mAbs to CD163 we first saturated the CD163-chip with Mac2-158 by injecting 50 μL of 50 μg/ml Mac2-158 and subsequently injecting relevant mAbs in 5 μg/ml. The binding buffer was CaHBS 10 mM Hepes, 150 mM NaCl, 3.0 mM CaCl2, 1.0 mM EGTA, and 0.005% Tween 20, pH 7.4.
Chain of CD163 (Q86VB7 42-1156): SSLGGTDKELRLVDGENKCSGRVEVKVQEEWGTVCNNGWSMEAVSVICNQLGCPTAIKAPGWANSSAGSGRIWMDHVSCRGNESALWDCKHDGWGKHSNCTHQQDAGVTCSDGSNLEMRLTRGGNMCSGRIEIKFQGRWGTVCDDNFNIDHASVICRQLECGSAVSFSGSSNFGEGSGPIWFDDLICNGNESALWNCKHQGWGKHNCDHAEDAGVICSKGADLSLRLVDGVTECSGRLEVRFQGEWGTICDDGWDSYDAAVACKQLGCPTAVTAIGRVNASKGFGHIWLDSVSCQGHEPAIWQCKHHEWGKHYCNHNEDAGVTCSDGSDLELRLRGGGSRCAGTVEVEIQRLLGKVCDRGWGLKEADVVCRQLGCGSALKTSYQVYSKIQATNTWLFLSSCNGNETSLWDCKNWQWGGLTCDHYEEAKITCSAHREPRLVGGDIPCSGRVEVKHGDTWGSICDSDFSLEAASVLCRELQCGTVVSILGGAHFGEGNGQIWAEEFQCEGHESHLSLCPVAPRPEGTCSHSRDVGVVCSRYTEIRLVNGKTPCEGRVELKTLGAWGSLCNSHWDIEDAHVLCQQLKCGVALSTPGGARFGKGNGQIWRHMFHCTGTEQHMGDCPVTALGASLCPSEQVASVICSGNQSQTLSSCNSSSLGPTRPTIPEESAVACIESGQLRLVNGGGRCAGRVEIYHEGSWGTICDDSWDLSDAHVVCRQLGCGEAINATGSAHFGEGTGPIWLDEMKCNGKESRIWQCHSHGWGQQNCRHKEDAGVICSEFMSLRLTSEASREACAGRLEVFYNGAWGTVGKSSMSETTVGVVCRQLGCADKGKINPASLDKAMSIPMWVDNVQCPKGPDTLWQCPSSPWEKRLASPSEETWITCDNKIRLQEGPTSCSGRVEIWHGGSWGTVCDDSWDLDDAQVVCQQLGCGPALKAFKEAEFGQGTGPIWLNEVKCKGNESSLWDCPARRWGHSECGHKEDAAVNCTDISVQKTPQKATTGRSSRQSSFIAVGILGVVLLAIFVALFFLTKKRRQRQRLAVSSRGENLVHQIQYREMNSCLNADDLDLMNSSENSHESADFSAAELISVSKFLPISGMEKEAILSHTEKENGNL

T1 sequence (Q86VB7 42-1156): as above

B1: MAC2-158: anti-human CD163 murine mAb, binds SRCR domain 1, IQ Products; VH SEQ ID NO: 1, VL SEQ ID NO: 2 (antibody, V domains shown)
VH: DVQLQESGPGLVKPSQSLSLTCTVTGYSITSDYAWNWIRQFPGNKLEWMGYITYSGITNYNPSLKSQISITRDTSKNQFFLQLNSVTTEDTATYYCVSGTYYFDYWGQGTTLTVSS
VL: SVVMTQTPKSLLISIGDRVTITCKASQSVSSDVAWFQQKPGQSPKPLIYYASNRYTGVPDRFTGSGYGTDFTFTISSVQAEDLAVYFCGQDYTSPRTFGGGTKLEIKRA
modifications: Mac2-158 VH; Mac2-158 VL
As for B1, in assay [1] (125I-labelled mAb, increasing time points), the “time course of cell-associated radioactivity (bound or internalized)” value was “did not reach a plateau”. In addition, the “percentage of cell-associated radioactivity reached” value in assay [1] (125I-labelled mAb, stable CD163 transfected Flp-In CHO cells) came to 61.27%. Further, the “cellular uptake and binding to CD163-expressing cells” value in assay [1] (compared with the other tested antibodies, FIG. 5) is “considerably higher”. Further, the “binding in western blot” value in assay [2] is “did bind”. The “binding to CD163-Fc saturated with Mac2-158” value in assay [3] is listed as “not able to bind”.

Values taken from US20170119790A1, “Agents, Uses and Methods” (CYTOGUIDE A/S, priority 2009, published 2017).
